According to patent US20150344570A1 (published 2015):

T1: FcγRIIa R (human, UniProt P12318 34-217)
T1 construct: extracellular domain; also called FcgRIIa R type; 2aR
T1 sequence (looked up): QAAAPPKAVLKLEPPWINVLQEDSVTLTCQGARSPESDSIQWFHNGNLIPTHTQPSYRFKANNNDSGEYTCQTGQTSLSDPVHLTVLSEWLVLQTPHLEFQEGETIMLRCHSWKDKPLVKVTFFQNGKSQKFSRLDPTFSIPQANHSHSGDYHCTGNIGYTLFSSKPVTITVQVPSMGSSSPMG

T2: FcγRIIb (human, UniProt P31994 43-217)
T2 construct: extracellular domain; also called FcgRIIb; 2b
T2 sequence (looked up): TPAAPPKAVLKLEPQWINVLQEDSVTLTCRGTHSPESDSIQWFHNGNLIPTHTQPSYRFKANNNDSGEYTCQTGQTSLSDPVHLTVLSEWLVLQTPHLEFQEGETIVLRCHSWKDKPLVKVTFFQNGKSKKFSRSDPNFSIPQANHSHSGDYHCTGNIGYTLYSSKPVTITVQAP


Legend:
[1] = target: T1, FcγRIIa R; experiment: SPR (Biacore); He/Con_2aR divided by He/Con_2b (FcγRIIa R over FcγRIIb)
[2] = target: T1, FcγRIIa R; experiment: SPR (Biacore), captured antibody, FcγR as analyte; relative binding, control GpH7-A5/GpH7-B3/GpL16-k0 = 100
Description: (§1) The heterodimerized antibodies He Abs in which one of the H chains was introduced with an alteration were assayed for their binding activities to each activating FcγR and inhibitory FcγR according to the method described in Example 4. […] The activating FcγRs in FIGS. 26, 27, 28, and 29 are FcγRIa, FcγRIIa (R), FcγRIIa (H), and FcγRIIIa, respectively.
(§2) Analysis of interaction between objective antibody and the FcγR was carried out using Biacore T100 (GE Healthcare). HBS-EP+ (GE Healthcare) was used as the running buffer, and the measurement temperature was set to 25° C. Chips produced by immobilizing the antigen peptide by the amine coupling method to a Series S Sencor Chip CM5 (GE Healthcare), or alternatively, chips produced by allowing preliminarily biotinylated antigen peptides to interact with and immobilize onto a Series S Sensor Chip SA (certified) (GE Healthcare) were used. Antibodies of interest were captured onto an antigen peptide-immobilized chip, and allowed to interact to each FcγR diluted with running buffer. To regenerate and repeatedly use the chip, the antibodies captured on the chip were washed off by reacting 10 mM glycine-HCl, pH 1.5.

[3] = target: T2, FcγRIIb; experiment: as above
Description: as §1, §2

Binder | He_2aR/2b (IIaR/IIb) [1] | He/Con_2aR [2] | He/Con_2b [3]
GpH7-A5/GpH7-B3 variant P271_20W/GpL16-k0 (antibody, human IgG1, kappa, heterodimerized anti-glypican-3 IgG1; alteration in one H chain only; also called He Ab) heavy 1: not shown heavy 2: not shown light: DIVMTQSPLSLPVTPGEPASISCQASESLVHSNRNTYLHWYLQKPGQSPQLLIYKVSNRFSGVPDRFSGSGSGTDFTLKISRVEAEDVGVYYCSQNTHVPPTFGQGTKVEIERTVAAPSVFIFPPSDEQLKSGTASVVCLLNNFYPREAKVQWKVDNALQSGNSQESVTEQDSKDSTYSLSSTLTLSKADYEKHKVYACEVTHQGLSSPVTKSFNRGEC | 1.33 ratio | 77.3 control = 100 | 58.1 control = 100
GpH7-A5/GpH7-B3 variant Q295_01G/GpL16-k0 (antibody, human IgG1, kappa, heterodimerized anti-glypican-3 IgG1; alteration in one H chain only; also called He Ab) heavy 1: not shown heavy 2: not shown light: DIVMTQSPLSLPVTPGEPASISCQASESLVHSNRNTYLHWYLQKPGQSPQLLIYKVSNRFSGVPDRFSGSGSGTDFTLKISRVEAEDVGVYYCSQNTHVPPTFGQGTKVEIERTVAAPSVFIFPPSDEQLKSGTASVVCLLNNFYPREAKVQWKVDNALQSGNSQESVTEQDSKDSTYSLSSTLTLSKADYEKHKVYACEVTHQGLSSPVTKSFNRGEC | 1.32 ratio | 60.9 control = 100 | 46 control = 100
GpH7-A5/GpH7-B3 variant Q295_13S/GpL16-k0 (antibody, human IgG1, kappa, heterodimerized anti-glypican-3 IgG1; alteration in one H chain only; also called He Ab) heavy 1: not shown heavy 2: not shown light: DIVMTQSPLSLPVTPGEPASISCQASESLVHSNRNTYLHWYLQKPGQSPQLLIYKVSNRFSGVPDRFSGSGSGTDFTLKISRVEAEDVGVYYCSQNTHVPPTFGQGTKVEIERTVAAPSVFIFPPSDEQLKSGTASVVCLLNNFYPREAKVQWKVDNALQSGNSQESVTEQDSKDSTYSLSSTLTLSKADYEKHKVYACEVTHQGLSSPVTKSFNRGEC | 1.3 ratio | 73.7 control = 100 | 56.9 control = 100
GpH7-A5/GpH7-B3 variant Q295_12R/GpL16-k0 (antibody, human IgG1, kappa, heterodimerized anti-glypican-3 IgG1; alteration in one H chain only; also called He Ab) heavy 1: not shown heavy 2: not shown light: DIVMTQSPLSLPVTPGEPASISCQASESLVHSNRNTYLHWYLQKPGQSPQLLIYKVSNRFSGVPDRFSGSGSGTDFTLKISRVEAEDVGVYYCSQNTHVPPTFGQGTKVEIERTVAAPSVFIFPPSDEQLKSGTASVVCLLNNFYPREAKVQWKVDNALQSGNSQESVTEQDSKDSTYSLSSTLTLSKADYEKHKVYACEVTHQGLSSPVTKSFNRGEC | 1.27 ratio | 83 control = 100 | 65.2 control = 100
GpH7-A5/GpH7-B3 variant Q295_04F/GpL16-k0 (antibody, human IgG1, kappa, heterodimerized anti-glypican-3 IgG1; alteration in one H chain only; also called He Ab) heavy 1: not shown heavy 2: not shown light: DIVMTQSPLSLPVTPGEPASISCQASESLVHSNRNTYLHWYLQKPGQSPQLLIYKVSNRFSGVPDRFSGSGSGTDFTLKISRVEAEDVGVYYCSQNTHVPPTFGQGTKVEIERTVAAPSVFIFPPSDEQLKSGTASVVCLLNNFYPREAKVQWKVDNALQSGNSQESVTEQDSKDSTYSLSSTLTLSKADYEKHKVYACEVTHQGLSSPVTKSFNRGEC | 1.29 ratio | 83.6 control = 100 | 64.7 control = 100
GpH7-A5/GpH7-B3 variant Q295_03V/GpL16-k0 (antibody, human IgG1, kappa, heterodimerized anti-glypican-3 IgG1; alteration in one H chain only; also called He Ab) heavy 1: not shown heavy 2: not shown light: DIVMTQSPLSLPVTPGEPASISCQASESLVHSNRNTYLHWYLQKPGQSPQLLIYKVSNRFSGVPDRFSGSGSGTDFTLKISRVEAEDVGVYYCSQNTHVPPTFGQGTKVEIERTVAAPSVFIFPPSDEQLKSGTASVVCLLNNFYPREAKVQWKVDNALQSGNSQESVTEQDSKDSTYSLSSTLTLSKADYEKHKVYACEVTHQGLSSPVTKSFNRGEC | 1.2 ratio | 91.2 control = 100 | 75.7 control = 100
GpH7-A5/GpH7-B3 variant Q295_15Y/GpL16-k0 (antibody, human IgG1, kappa, heterodimerized anti-glypican-3 IgG1; alteration in one H chain only; also called He Ab) heavy 1: not shown heavy 2: not shown light: DIVMTQSPLSLPVTPGEPASISCQASESLVHSNRNTYLHWYLQKPGQSPQLLIYKVSNRFSGVPDRFSGSGSGTDFTLKISRVEAEDVGVYYCSQNTHVPPTFGQGTKVEIERTVAAPSVFIFPPSDEQLKSGTASVVCLLNNFYPREAKVQWKVDNALQSGNSQESVTEQDSKDSTYSLSSTLTLSKADYEKHKVYACEVTHQGLSSPVTKSFNRGEC | 1.27 ratio | 82.8 control = 100 | 65.4 control = 100
GpH7-A5/GpH7-B3 variant Q295_11K/GpL16-k0 (antibody, human IgG1, kappa, heterodimerized anti-glypican-3 IgG1; alteration in one H chain only; also called He Ab) heavy 1: not shown heavy 2: not shown light: DIVMTQSPLSLPVTPGEPASISCQASESLVHSNRNTYLHWYLQKPGQSPQLLIYKVSNRFSGVPDRFSGSGSGTDFTLKISRVEAEDVGVYYCSQNTHVPPTFGQGTKVEIERTVAAPSVFIFPPSDEQLKSGTASVVCLLNNFYPREAKVQWKVDNALQSGNSQESVTEQDSKDSTYSLSSTLTLSKADYEKHKVYACEVTHQGLSSPVTKSFNRGEC | 1.26 ratio | 88.9 control = 100 | 70.4 control = 100
GpH7-A5/GpH7-B3 variant Q295_05P/GpL16-k0 (antibody, human IgG1, kappa, heterodimerized anti-glypican-3 IgG1; alteration in one H chain only; also called He Ab) heavy 1: not shown heavy 2: not shown light: DIVMTQSPLSLPVTPGEPASISCQASESLVHSNRNTYLHWYLQKPGQSPQLLIYKVSNRFSGVPDRFSGSGSGTDFTLKISRVEAEDVGVYYCSQNTHVPPTFGQGTKVEIERTVAAPSVFIFPPSDEQLKSGTASVVCLLNNFYPREAKVQWKVDNALQSGNSQESVTEQDSKDSTYSLSSTLTLSKADYEKHKVYACEVTHQGLSSPVTKSFNRGEC | 1.3 ratio | 87.4 control = 100 | 67.5 control = 100

The remaining lines, values ahead:

He_2aR/2b (IIaR/IIb) [1] | He/Con_2aR [2] | He/Con_2b [3] | Binder
1.3 ratio | 81.3 control = 100 | 62.7 control = 100 | GpH7-A5/GpH7-B3 variant Q295_16H/GpL16-k0 (antibody, human IgG1, kappa, heterodimerized anti-glypican-3 IgG1; alteration in one H chain only; also called He Ab) heavy 1: not shown heavy 2: not shown light: DIVMTQSPLSLPVTPGEPASISCQASESLVHSNRNTYLHWYLQKPGQSPQLLIYKVSNRFSGVPDRFSGSGSGTDFTLKISRVEAEDVGVYYCSQNTHVPPTFGQGTKVEIERTVAAPSVFIFPPSDEQLKSGTASVVCLLNNFYPREAKVQWKVDNALQSGNSQESVTEQDSKDSTYSLSSTLTLSKADYEKHKVYACEVTHQGLSSPVTKSFNRGEC
1.23 ratio | 98.8 control = 100 | 80.1 control = 100 | GpH7-A5/GpH7-B3 variant S298_01G/GpL16-k0 (antibody, human IgG1, kappa, heterodimerized anti-glypican-3 IgG1; alteration in one H chain only; also called He Ab) heavy 1: not shown heavy 2: not shown light: DIVMTQSPLSLPVTPGEPASISCQASESLVHSNRNTYLHWYLQKPGQSPQLLIYKVSNRFSGVPDRFSGSGSGTDFTLKISRVEAEDVGVYYCSQNTHVPPTFGQGTKVEIERTVAAPSVFIFPPSDEQLKSGTASVVCLLNNFYPREAKVQWKVDNALQSGNSQESVTEQDSKDSTYSLSSTLTLSKADYEKHKVYACEVTHQGLSSPVTKSFNRGEC
1.24 ratio | 91.2 control = 100 | 73.4 control = 100 | GpH7-A5/GpH7-B3 variant S298_02A/GpL16-k0 (antibody, human IgG1, kappa, heterodimerized anti-glypican-3 IgG1; alteration in one H chain only; also called He Ab; GpH7-A5/GpH7-B3-15-02A/GpL16-k0) heavy 1: not shown heavy 2: not shown light: DIVMTQSPLSLPVTPGEPASISCQASESLVHSNRNTYLHWYLQKPGQSPQLLIYKVSNRFSGVPDRFSGSGSGTDFTLKISRVEAEDVGVYYCSQNTHVPPTFGQGTKVEIERTVAAPSVFIFPPSDEQLKSGTASVVCLLNNFYPREAKVQWKVDNALQSGNSQESVTEQDSKDSTYSLSSTLTLSKADYEKHKVYACEVTHQGLSSPVTKSFNRGEC
1.35 ratio | 60 control = 100 | 44.4 control = 100 | GpH7-A5/GpH7-B3 variant Q295_20W/GpL16-k0 (antibody, human IgG1, kappa, heterodimerized anti-glypican-3 IgG1; alteration in one H chain only; also called He Ab) heavy 1: not shown heavy 2: not shown light: DIVMTQSPLSLPVTPGEPASISCQASESLVHSNRNTYLHWYLQKPGQSPQLLIYKVSNRFSGVPDRFSGSGSGTDFTLKISRVEAEDVGVYYCSQNTHVPPTFGQGTKVEIERTVAAPSVFIFPPSDEQLKSGTASVVCLLNNFYPREAKVQWKVDNALQSGNSQESVTEQDSKDSTYSLSSTLTLSKADYEKHKVYACEVTHQGLSSPVTKSFNRGEC
1.27 ratio | 82.4 control = 100 | 64.9 control = 100 | GpH7-A5/GpH7-B3 variant Q295_18N/GpL16-k0 (antibody, human IgG1, kappa, heterodimerized anti-glypican-3 IgG1; alteration in one H chain only; also called He Ab) heavy 1: not shown heavy 2: not shown light: DIVMTQSPLSLPVTPGEPASISCQASESLVHSNRNTYLHWYLQKPGQSPQLLIYKVSNRFSGVPDRFSGSGSGTDFTLKISRVEAEDVGVYYCSQNTHVPPTFGQGTKVEIERTVAAPSVFIFPPSDEQLKSGTASVVCLLNNFYPREAKVQWKVDNALQSGNSQESVTEQDSKDSTYSLSSTLTLSKADYEKHKVYACEVTHQGLSSPVTKSFNRGEC
1.29 ratio | 84 control = 100 | 65.4 control = 100 | GpH7-A5/GpH7-B3 variant S298_04F/GpL16-k0 (antibody, human IgG1, kappa, heterodimerized anti-glypican-3 IgG1; alteration in one H chain only; also called He Ab) heavy 1: not shown heavy 2: not shown light: DIVMTQSPLSLPVTPGEPASISCQASESLVHSNRNTYLHWYLQKPGQSPQLLIYKVSNRFSGVPDRFSGSGSGTDFTLKISRVEAEDVGVYYCSQNTHVPPTFGQGTKVEIERTVAAPSVFIFPPSDEQLKSGTASVVCLLNNFYPREAKVQWKVDNALQSGNSQESVTEQDSKDSTYSLSSTLTLSKADYEKHKVYACEVTHQGLSSPVTKSFNRGEC
1.34 ratio | 86.3 control = 100 | 64.5 control = 100 | GpH7-A5/GpH7-B3 variant S298_03V/GpL16-k0 (antibody, human IgG1, kappa, heterodimerized anti-glypican-3 IgG1; alteration in one H chain only; also called He Ab) heavy 1: not shown heavy 2: not shown light: DIVMTQSPLSLPVTPGEPASISCQASESLVHSNRNTYLHWYLQKPGQSPQLLIYKVSNRFSGVPDRFSGSGSGTDFTLKISRVEAEDVGVYYCSQNTHVPPTFGQGTKVEIERTVAAPSVFIFPPSDEQLKSGTASVVCLLNNFYPREAKVQWKVDNALQSGNSQESVTEQDSKDSTYSLSSTLTLSKADYEKHKVYACEVTHQGLSSPVTKSFNRGEC
